Experimental data reported in PMC8279337.

Molecular target: Adipose Triglyceride Lipase (UniProt Q96AD5)
Chain of UniProt Q96AD5 (Q96AD5 whole entry): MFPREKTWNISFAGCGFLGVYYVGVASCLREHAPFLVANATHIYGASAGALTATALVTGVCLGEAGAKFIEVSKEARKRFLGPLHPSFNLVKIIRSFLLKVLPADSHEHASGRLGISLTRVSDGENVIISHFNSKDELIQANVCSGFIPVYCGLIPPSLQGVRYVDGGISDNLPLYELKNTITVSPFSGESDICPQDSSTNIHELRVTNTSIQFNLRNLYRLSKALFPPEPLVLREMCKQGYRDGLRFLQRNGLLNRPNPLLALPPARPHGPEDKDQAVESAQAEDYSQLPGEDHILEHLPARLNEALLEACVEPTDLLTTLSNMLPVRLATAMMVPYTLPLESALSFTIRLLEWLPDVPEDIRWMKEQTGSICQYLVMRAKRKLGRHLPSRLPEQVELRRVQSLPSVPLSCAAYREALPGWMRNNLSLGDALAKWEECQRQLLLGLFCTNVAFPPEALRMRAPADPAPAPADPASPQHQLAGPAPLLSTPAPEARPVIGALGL

triglyceride hydrolase activity of the ATGL lysate on [9,10-3H]-triolein (DPM), 2 and 10 ug MBP-G0S2, compared with HisMBP; DPM smaller at 10 ug than at 2 ug: 60%
Substance: MBP-G0S2 (full length G0S2 with N-terminal His6 and maltose-binding protein) (from UniProt Q61585 1-103) (natural protein)
